{
  "source": "patent US9725708B2",
  "about": "“Methods of modulating ubiquitin ligase activity” (Board of Supervisors of Louisiana State University and …, priority 2012, dated 2017)",
  "molecules": {"B1": {"name": "E6 protein: recombinant human papilloma virus 16 E6 protein, 158 amino acids (protein)", "chain": "MHQKRTAMFQDPQERPRKLPQLCTELQTTIHDIILECVYCKQQLLRREVYDFAFRDLCIVYRDGNPYAVCDKCLKFYSKISEYRHYCYSLYGTTLEQQYNKPLCDLLIRCINCQKPLCPEEKQRHLDKKQRFHNIRGRWTGRCMSCCRSSRTRRETQL"}},
  "key": {"E6AP ligase [1]": {"biological_target": "T1, E6AP ligase (Homo sapiens, UniProt Q05086)", "T1 construct": "corresponding to full-length GST-E6AP; made in house; host or cells: E. coli", "T1 sequence (Q05086 1-872 isoform Q05086-3)": "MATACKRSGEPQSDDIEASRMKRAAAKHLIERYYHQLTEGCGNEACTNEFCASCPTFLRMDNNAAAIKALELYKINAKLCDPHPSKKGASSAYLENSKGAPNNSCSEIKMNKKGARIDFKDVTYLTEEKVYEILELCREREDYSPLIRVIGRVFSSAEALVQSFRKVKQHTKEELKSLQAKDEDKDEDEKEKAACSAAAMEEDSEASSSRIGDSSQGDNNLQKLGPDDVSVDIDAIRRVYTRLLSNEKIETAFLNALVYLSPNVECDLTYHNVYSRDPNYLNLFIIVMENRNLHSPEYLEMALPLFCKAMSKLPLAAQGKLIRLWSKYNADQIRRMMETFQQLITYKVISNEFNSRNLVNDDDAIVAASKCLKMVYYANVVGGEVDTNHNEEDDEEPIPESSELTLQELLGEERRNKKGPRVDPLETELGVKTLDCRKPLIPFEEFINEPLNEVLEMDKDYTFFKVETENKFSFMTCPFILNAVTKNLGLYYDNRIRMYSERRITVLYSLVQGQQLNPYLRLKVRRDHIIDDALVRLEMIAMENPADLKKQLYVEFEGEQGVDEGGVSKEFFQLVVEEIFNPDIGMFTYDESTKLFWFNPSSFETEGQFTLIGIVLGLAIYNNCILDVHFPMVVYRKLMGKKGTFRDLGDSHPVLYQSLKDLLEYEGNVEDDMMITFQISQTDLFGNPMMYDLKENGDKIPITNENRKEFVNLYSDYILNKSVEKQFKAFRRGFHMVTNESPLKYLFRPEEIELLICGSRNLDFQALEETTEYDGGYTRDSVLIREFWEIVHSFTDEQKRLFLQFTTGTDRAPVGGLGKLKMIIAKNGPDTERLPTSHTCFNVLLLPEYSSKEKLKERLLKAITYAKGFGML", "test": "E6AP-catalyzed 125I-polyubiquitin chain formation, initial rates", "assay_type": "biochemical", "protocol": "(§1) E6AP-catalyzed ^125I-Ubiquitin Conjugation Assay: The E3 ligase activity of recombinant E6AP ligase was quantitated in kinetic assays under initial velocity conditions (Ronchi et al., (2013) J. Biol. Chem. 288, 10349-10360, Ronchi & Haas (2012) Methods Mol. Biol. 832: 197-218). Rates of E6AP-catalyzed ^125I-polyubiquitin chain formation were measured at 37° C. in incubations of 25-μl final volume containing 50 mM Tris-HCl (pH 7.5), 1 mM ATP, 10 mM MgCl2, 1 mM DTT, 10 mM creatine phosphate, 1 IU of creatine phosphokinase, 5 μM ^125I-ubiquitin (approximately 1.5×10^4 cpm/pmol), 50 nM human Uba1, and the indicated concentrations of UbcH7 and E6AP ligase (Siepmann et al., (2003) J. Biol. Chem. 278: 9448-9457; Baboshina et al., (2001) J. Biol. Chem. 276: 39428-39437).\nReactions were initiated by the addition of ^125I-ubiquitin. After 10-30 min, the reactions were quenched by the addition of 25 μl of 2×SDS sample buffer containing 0.3% (v/v) β-mercaptoethanol, and then the samples were heated to 100° C. for 3 min. The polyubiquitin conjugates were resolved from free ^125I-ubiquitin by 12% (w/v) SDS-PAGE under reducing conditions at 4° C. and visualized by autoradiography of the dried gels.\n(§2) Polyubiquitin chain formation was measured by excising lanes between the top of the resolving gel and the top of the stacker gel, representing anchored and free ^125I-polyubiquitin chains, respectively, and quantitating associated ^125I-ubiquitin by γ-counting. Absolute rates of ^125I-polyubiquitin chain formation were calculated from the associated radioactivity and the corrected specific radioactivity for ^125I-ubiquitin. Datum points represent single assay determinations, and complete data sets were evaluated by non-linear regression analysis using GraFit version 5.0 (Erithicus). Active Uba1, E2, and E6AP ligase were independently determined in parallel by their stoichiometric formation of ^125I-ubiquitin thioester."}, "E6AP ligase [2]": {"biological_target": "E6AP ligase (Homo sapiens, UniProt Q05086)", "details": "surface plasmon resonance, Zanier et al. 2005; cited from earlier work"}, "E6APR626A": {"biological_target": "T2, E6APR626A (Homo sapiens, UniProt Q05086, R649A)", "T2 construct": "made in house; host or cells: E. coli", "T2 sequence (Q05086 1-872 isoform Q05086-3 R646A)": "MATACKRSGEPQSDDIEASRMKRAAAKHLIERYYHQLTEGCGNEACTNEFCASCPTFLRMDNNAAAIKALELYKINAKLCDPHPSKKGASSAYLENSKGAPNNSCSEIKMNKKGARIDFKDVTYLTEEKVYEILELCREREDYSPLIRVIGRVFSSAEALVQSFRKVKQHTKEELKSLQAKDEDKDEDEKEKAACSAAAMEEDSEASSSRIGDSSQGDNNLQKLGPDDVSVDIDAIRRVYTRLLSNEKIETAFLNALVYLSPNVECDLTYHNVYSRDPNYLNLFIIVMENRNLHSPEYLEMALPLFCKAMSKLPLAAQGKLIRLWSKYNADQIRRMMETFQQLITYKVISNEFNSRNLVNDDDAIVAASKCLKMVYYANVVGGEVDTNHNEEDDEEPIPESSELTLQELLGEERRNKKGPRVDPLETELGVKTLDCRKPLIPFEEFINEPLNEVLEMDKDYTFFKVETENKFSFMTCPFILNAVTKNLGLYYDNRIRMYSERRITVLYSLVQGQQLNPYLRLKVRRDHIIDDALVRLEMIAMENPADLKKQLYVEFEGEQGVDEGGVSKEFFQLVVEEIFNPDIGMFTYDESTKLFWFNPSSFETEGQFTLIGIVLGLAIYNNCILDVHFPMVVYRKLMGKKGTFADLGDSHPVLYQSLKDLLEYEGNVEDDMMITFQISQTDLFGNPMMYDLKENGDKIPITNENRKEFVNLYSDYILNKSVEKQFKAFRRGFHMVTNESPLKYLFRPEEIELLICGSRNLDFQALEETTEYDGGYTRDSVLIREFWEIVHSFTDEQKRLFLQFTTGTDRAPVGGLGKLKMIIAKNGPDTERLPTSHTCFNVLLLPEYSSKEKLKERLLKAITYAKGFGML", "test": "E6 rescue of 125I-polyubiquitin chain formation by E6APR626A", "assay_type": "biochemical", "details": "20 nM E6 protein", "protocol": "as §1, with “39428-39437). […]” for “39428-39437).”\nas §2, with “Active Uba1, E2, and E6AP ligase were independently determined in parallel by their stoichiometric formation of ^125I-ubiquitin thioester.” left out"}},
  "note": "Like-named read-outs stand apart in the source and are kept apart here.",
  "data": [
    {"molecule": "B1", "values": [
      {"measurement": "effect on initial rate, wild-type protein", "setting": "E6AP ligase [1]; 20 nM E6 protein, 1 nM GST-E6AP", "result": "significantly enhanced"},
      {"measurement": "Kactivation", "setting": "E6AP ligase [1]; activation of E6AP ligase catalytic activity", "result": 1.5, "unit": "nM"},
      {"measurement": "Kd", "setting": "E6AP ligase [1]; from double reciprocal plot, His6-E6AP, read-out: Kd for E6 binding", "result": 1.5, "unit": "nM"},
      {"measurement": "kcat", "setting": "E6AP ligase [1]; in the presence of 20 nM E6 protein, 0.4 nM His6-E6AP", "result": "0.81 ± 0.045", "unit": "s⁻¹"},
      {"measurement": "stimulation in E6AP ligase activity", "setting": "E6AP ligase [1]; saturating E6 protein", "result": 14, "unit": "fold"},
      {"measurement": "mode of action", "setting": "E6AP ligase [1]; with respect to [UbcH7]o", "result": "non-essential activator"},
      {"measurement": "Kd", "setting": "E6AP ligase [2]", "result": 4, "unit": "µM"},
      {"measurement": "increase in rate", "setting": "E6APR626A", "result": 13, "unit": "fold"}
    ]}
  ]
}
